Source: article doi:10.1101/2022.08.02.502465
Where two headings read alike, the source gives them in different places.

Columns and labels:
DNA polymerase I (Pol I) [1] = biological target: T1, DNA polymerase I (Pol I) (Escherichia coli, UniProt P00582 1-928); test: BLI
[2] = biological target: Pol I endo-mut (endonuclease-dead full-length Pol I) (Escherichia coli, UniProt P00582 1-928, D115A;D140A); test: cryo-EM structure
[3] = biological target: Pol I Klenow fragment (Pol IKL) (Escherichia coli, UniProt P00582 328-928); test: cryo-EM structure
DNA polymerase I (Pol I) [4] = biological target: T1, DNA polymerase I (Pol I); test: BLI; remark: listed apart in the source

B1: primed BLI substrate (mixed)
DNA 1: CGCTCACTGGCCGTCGTTTTACAACGTCGTGACTGGGAAAACCCTGGCGTTACC
DNA 2: ACGACGTTGTAAAACGACGGCCAGTGAGCG
Work on B1 yielded a Kd (DNA polymerase I (Pol I) [1]) of 42 ± 5 nM.

B2: flapped Okazaki fragment DNA (cryo-EM) (mixed)
DNA 1: CGCTCACTGGCCGTCGTTTTACAACGTCGTGACTGGGAAAACCCTGGCGTTACC
DNA 2: GGTAACGCCAGGGTTTTCCCAGTC
DNA 3: TTTTTTACGACGTTGTAAAACGACGGCCAGTGAGCG
B2: binds [2]; binds [3].

B3: continuous BLI substrate (dsDNA)
DNA 1: GGTAACGCCAGGGTTTTCCCAGTCACGACGTTGTAAAACGACGGCCAGTGAGCG
DNA 2: CGCTCACTGGCCGTCGTTTTACAACGTCGTGACTGGGAAAACCCTGGCGTTACC
B3 showed a Kd (DNA polymerase I (Pol I) [4]) of 285 ± 5 nM.
